From article PMC3567212 (Biochemistry, 2012)
Positions count from the first letter of the chain named.

B1: Rhizobium etli pyruvate carboxylase R472S (enzyme, UniProt Q2K340 1-1154, looked up)
chain: MPISKILVANRSEIAIRVFRAANELGIKTVAIWAEEDKLALHRFKADESYQVGRGPHLARDLGPIESYLSIDEVIRVAKLSGADAIHPGYGLLSESPEFVDACNKAGIIFIGPKADTMRQLGNKVAARNLAISVGVPVVPATEPLPDDMAEVAKMAAAIGYPVMLKASWGGGGRGMRVIRSEADLAKEVTEAKREAMAAFGKDEVYLEKLVERARHVESQILGDTHGNVVHLFERDCSVQRRNQKVVERAPAPYLSEAQRQELAAYSLKIAGATNYIGAGTVEYLMDADTGKFYFIEVNPRIQVEHTVTEVVTGIDIVKAQIHILDGAAIGTPQSGVPNQEDIRLNGHALQCRVTTEDPEHNFIPDYGRITAYRSASGFGIRLDGGTSYSGAIITRYYDPLLVKVTAWAPNPLEAISRMDRALREFRIRGVATNLTFLEAIIGHPKFRDNSYTTRFIDTTPELFQQVKRQDSATKLLTYLADVTVNGHPEAKDRPKPLENAARPVVPYANGNGVKDGTKQLLDTLGPKKFGEWMRNEKRVLLTDTTMRDGHQSLLATRMRTYDIARIAGTYSHALPNLLSLECWGGATFDVSMRFLTEDPWERLALIREGAPNLLLQMLLRGANGVGYTNYPDNVVKYFVRQAAKGGIDLFRVFDCLNWVENMRVSMDAIAEENKLCEAAICYTGDILNSARPKYDLKYYTNLAVELEKAGAHIIAVKDMAGLLKPAAAKVLFKALREATGLPIHFHTHDTSGIAAATVLAAVEAGVDAVDAAMDALSGNTSQPCLGSIVEALSGSERDPGLDPAWIRRISFYWEAVRNQYAAFESDLKGPASEVYLHEMPGGQFTNLKEQARSLGLETRWHQVAQAYADANQMFGDIVKVTPSSKVVGDMALMMVSQDLTVADVVSPDREVSFPESVVSMLKGDLGQPPSGWPEALQKKALKGEKPYTVRPGSLLKEADLDAERKVIEKKLEREVSDFEFASYLMYPKVFTDFALASDTYGPVSVLPTPAYFYGLADGEELFADIEKGKTLVIVNQAVSATDSQGMVTVFFELNGQPRRIKVPDRAHGATGAAVRRKAEPGNAAHVGAPMPGVISRVFVSSGQAVNAGDVLVSIEAMKMETAIHAEKDGTIAEVLVKAGDQIDAKDLLAVYGG
modifications: covalently attached biotin prosthetic group on the BCCP domain
B2: Rhizobium etli pyruvate carboxylase R427K (enzyme, UniProt Q2K340 1-1154, looked up)
chain: B1 chain with R427K, S472R
modifications: covalently attached biotin prosthetic group on the BCCP domain
B3: Rhizobium etli pyruvate carboxylase R472K (enzyme, UniProt Q2K340 1-1154, looked up)
chain: B1 chain with S472K
modifications: covalently attached biotin prosthetic group on the BCCP domain

What was measured:
[1] = biological target: the molecule itself; test: AUC
[2] = biological target: the molecule itself; test: AUC; remark: listed apart in the source

| Protein | stoichiometry N [1] | % tetramer [2] |
| --- | --- | --- |
| B1 | 4 | 72% |
| B2 | 4 | 75% |
| B3 | 4 |  |
